# Data reported in IntAct's records for PubMed 22291008.
# B1: CMRF35-like molecule 5 (Homo sapiens), Q6UXZ3 (parent)
# chain: MWLSPSLLLLILPGYSIAAKITGPTTVNGSEQGSLTVQCAYGSGWETYLKWRCQGADWNYCNILVKTNGSEQEVKKNRVSIRDNQKNHVFTVTMENLKRDDADSYWCGTERPGIDLGVKVQVTINPGTQTAVSEWTTTTASLAFTAAATQKTSSPLTRSPLKSTHFLFLFLLELPLLLSMLGTVLWVNRPQRRS
# B2: High affinity immunoglobulin epsilon receptor subunit gamma (Homo sapiens), P30273 (parent)
# chain: MIPAVVLLLLLLVEQAAALGEPQLCYILDAILFLYGIVLTLLYCRLKIQVRKAAITSYEKSDGVYTGLSTRNQETYETLKHEKPPQ
# partner: B1 chain
# Variants of: B1
# Conditions: with fcerg_human FCER1G, P30273
row,Variant,effect of a mutation on the interaction
1,MWLSPSLLLLILPGYSIAAKITGPTTVNGSEQGSLTVQCAYGSGWETYLKWRCQGADWNYCNILVKTNGSEQEVKKNRVSIRDNQKNHVFTVTMENLKRDDADSYWCGTERPGIDLGVKVQVTINPGTQTAVSEWTTTTASLAFTAAATQKTSSPLTRSPLKSTHFLFLFLLALPLLLSMLGTVLWVNRPQRRS [E173A],with no effect

# Variants of: B2
# Conditions: with clm5_human CD300LD, Q6UXZ3
row,Variant,effect of a mutation on the interaction
1,MIPAVVLLLLLLVEQAAALGEPQLCYILAAILFLYGIVLTLLYCRLKIQVRKAAITSYEKSDGVYTGLSTRNQETYETLKHEKPPQ [D29A],decreasing interaction strength
